Sequences and labels used below:
B1: R-16 rabbit anti-CD40 antibody (antibody, V domains shown)
VH: QSLEESGGGLVKPGGTLTLTCKASGFSLNYYWPCWVRQAPGKGLEWVACLNGGDSDTTVYARWAKGRFTISKASSTTVTLQMTSLTAADTATYFCARYIIPGYHFNLWGPGTLVTVSS
VL: AYDMTQTPASVSAAVGDTVTIKCQASQSISSYLYWYQQKPGQPPKLLIYQASKLASGVPSRFKGSGSGTEYTLTISDLECADVATYYCQQGYSHINVDNIFGGGFQVVVK
B2: R-9 rabbit anti-CD40 antibody (antibody, V domains shown)
VH: QSLEESGGDLVKPGASLTLTCTASRFSFSSTYMCWVRQAPGKGLEWIACTYTGSSGGTYYASWAKGRFTISQTSSTTVTLQLTGLTPADTATYFCARPDVGFDFAINFWGPGTLVTVSS
VL: DIVMTQTPSSASEPVGGTVTIKCQASQSISSRLAWYQQKPGQPPKLLIYRASTLASGVSSRFKGSGSGTQFTLTISDLECADAATYYCQCTGYTISWPFGGGTEVVVK
B3: 19-45 rabbit anti-CD40 antibody (antibody, V domains shown)
VH: QSVEESGGRLVTPGTPLTLNCTVSGFSLSSYDMNWVRQAPGKGLEWIGVIWNNGEIFYASWAKGRFTISKTSTTVDLKITSPSTEDTATYFCAGDADGGVVSYFHVWGPGTLVTVSS
VL: AYDMTQTPASVEVAVGGTVTIKCQASQTIYTYLAWYLQKPGQPPKLLIYEASKLASGVSSRFEGSGSGTQFTLTISGVQCDDAATYYCQQGYNSRHVDNVFGGGTEVVVK
B4: R-18 rabbit anti-CD40 antibody (antibody, V domains shown)
VH: QSLEESGGDLVKPGASLTLTCTASGIDFSSYYYMCWVRQAPGKGLEWIGCIYAGSGSTYYASWAKGRFTISKTSSTTVTLQMTSLTAADTATYFCARSGYNDGSYYNLWGPGTLVTVSS
VL: DIVMTQTPSSVEAAVGGTVTIKCQASQSIYTWLAWYQQKPGQPPKLLIYKASTLASGVPSRFKGSGSGTDYTLTISDLECDDAATYYCQRYSWNGSYGVSFGGGTEVVVR
B5: R-24 rabbit anti-CD40 antibody (antibody, V domains shown)
VH: QSLEESGGDLVKPGASLTLTCTASGFSFSRGYYICWVRQAPGKGLEWIACIGAGSGGTYFASWAKGRFSISRTSSTTVTLQMTSLTAADTATYFCAREDAGNDDYGYARNLWGPGTLVTVSS
VL: DIVMTQTPASVSAAVGGTVTINCQASESAYTLLAWYQQKPGQPPKLLIYGASILESGVPSRFKGSGSGTDFTLTISDLECADAATYYCQSHYFGSSSGYANTFGGGTEVVVK
B6: R-3 rabbit anti-CD40 antibody (antibody, V domains shown)
VH: QSLEESGGDLVKPGASLTLTCTASGFSFSDSFWIAWVRQAPGKGLEWIGCIHALSSGSTYYANWARGRFTISKTSSTTVTLQMNSLTAADTATYFCARSYAGYADYNVATGLNLWGPGTLVTVSS
VL: DVVMTQTPSSASAAVGGTVTTKCQASQSIGSYLAWYQQKPGQRPKLLIYAASNLASGVPSRFKGSRSGTEYTLTISGVQREDAATYYCLGSFTGSDTTFGGGTELEIL
B7: R-6 rabbit anti-CD40 antibody (antibody, V domains shown)
VH: GGSLTLTGTASGFSFSSSYSMCWVRQAPGKGLEWIGCIDTGRGYTYHASGAKGRFTFSKTSSTTVTLQMTSLTAADTATYFCARSSYVRYDNRNYGFNLWGPGTLVTVSS
VL: DIVMTQTPASVEAAVGGTITINCQASESISSWLSWYQQKPGQRPKLLIYYTSNLASGVPSRFKGSGAGTDFTLTISDLECADAATYYCQSNYGSSSSTYYGFGGGTEVVVK
B8: R-33 rabbit anti-CD40 antibody (antibody, V domains shown)
VH: QSLEESGGDLVKPGASLTLTCTASGFSFSSSYWICWVRQAPGKGLEWIACINTGSSVTTVYARWAKGRFTISKASSTTVTLQMTSLTAADTATYFCARYIIPGYNFNLWGPGTLVTVSS
VL: AYDMTQTPASVEVAVGGTVTINCQASQSISSYLYWYQQKPGQPPKLLIYDASKLASGVPSRFKGSGSGTQFTLTITGVECADAATYYCQQGYSHINVDNIFGGGTEVVVK
B9: 19-21 rabbit anti-CD40 antibody (antibody, V domains shown)
VH: QSLEESGGRLVTPGTPLTLTCTVSGFDLSSNAMNWVRQAPGKGLEWIGYITISGSAGYASWAKGRFTISKTSTTVDLKISSPTTEDTATYFCARGYNTMAIWGPGTLVTVSS
VL: AQVLTQTPSPVSAPVGGTVTINCQSSQNVLINNRLAWYQQKPGQPPKLLIYDASKLASGVPSRFKGSGSGTQFTLTISGVQCDDAATYYCQAGYSSGDGNAFGGGTEVVVK
B10: 19-59 rabbit anti-CD40 antibody (antibody, V domains shown)
VH: QSVEESGGRLVTPGTPLTLTCTVSGFSLSDYVMRWVRQAPGKGLEWIGVISSAGNTYYATWAKDRFTISKTSTTVDLRIASPTTEDTATYFCARIWRPDDPTNSDIWGPGTLVTVSS
VL: DVVMTQTPSSTSAAVGGTVTIKCQASESISSSLAWYQQKPGQPPKLLIYYASDLASGVPSRFSGSRSGTEYTLTISGVQREDAATYYCLGGYATAAYRTAFGGGTELEIL
B11: R-36 rabbit anti-CD40 antibody (antibody, V domains shown)
VH: QQQLVESGGGLVKPGASLTLTCKASGFSFSSTYWICWVRQAPGKGLEWIGCINSDDSGTNVYANWAKGRFTISKASSTTVTLQMTSLTAADTATYFCARYPIPGYHFNLWGPGTLVTVSS
VL: AYDMTQTPASVEVAVGGTVTIKCQASQNIYGYLFWYQQKPGQPPNLLIAEASKLPSGVPSRFKGSGSGTEYSLTISGVECADAATYYCQQSYSHINVDNIFGGGTEVVVK
B12: cR-8 chimeric anti-CD40 antibody (antibody, V domains shown)
VH: QSLEESGGDLVKPGASLTLTCTASGFSFSSTYVCWVRQAPGKGLEWIACIYTGDGTNYSASWAKGRFTISKPSSTTVTLQMTSLTPADTATYFCARPDITYGFAINFWGPGTLVTVSS
VL: B2 VL with S59P, Q70E, T94G, F99I
B13: cR-3 chimeric anti-CD40 antibody (antibody, V domains shown)
VH: B6 VH
VL: B6 VL
B14: cR-33 chimeric anti-CD40 antibody (antibody, V domains shown)
VH: B8 VH
VL: B8 VL
B15: c19-21 chimeric anti-CD40 antibody (antibody, V domains shown)
VH: B9 VH
VL: B9 VL

Changes are numbered by the printed parent chain.

The target in the first assay is T1, human CD40 on the cell surface (human, UniProt P25942 21-277). Briefly: cell-based or functional assay.
T1 sequence (P25942 21-277): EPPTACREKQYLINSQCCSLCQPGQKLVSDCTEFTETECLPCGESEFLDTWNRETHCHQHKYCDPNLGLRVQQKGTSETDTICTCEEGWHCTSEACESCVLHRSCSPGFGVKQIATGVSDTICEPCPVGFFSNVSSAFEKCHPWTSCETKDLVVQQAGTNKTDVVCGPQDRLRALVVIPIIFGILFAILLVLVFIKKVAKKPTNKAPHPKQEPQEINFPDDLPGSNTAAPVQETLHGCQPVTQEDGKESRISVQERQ
As to B1, the “CD83 expression on human monocyte-derived DC (DC maturation assay)” value (“CD83 expression” below) is > 50%.

Take B2: the “CD83 expression” value is > 50%. As to B3, the “CD83 expression” value was > 50%. The same measure, in the same setting: the value for B4 was > 50%; that for B5 was > 50%; that for B6 was > 50%. The same measure, in the same setting: for B7 the value was > 50%. On the same count and under the same terms, for B8 the value was > 50%; for B9, > 50%; for B10, > 50%. Consider B11, for which the “CD83 expression” value was > 50%.

The next assay has as its target T1, human CD40 on the cell surface. Briefly: cell-based or functional assay. This is another data set of the same source.
Consider B12, for which the “ADCC (% cytotoxicity of Ramos cell at 1 µg/ml)” value worked out at 33% and the “Pro-apoptosis activity (IC50)” value was found to be 0.45 µg/mL. For B13 the same measures were 30% and 0.57 µg/mL. For B14 the same measures were 29% and 0.9 µg/mL.

As to B15, the “ADCC (% cytotoxicity of Ramos cell at 1 µg/ml)” value was determined as 26% and the “Pro-apoptosis activity (IC50)” value is 0.02 µg/mL.
